# Experimental data as given in the RNAGym collection of RNA variant scans (doi:10.7554/elife.80360).
# B1: CPEB3 Ribozyme (parent)
# chain: GGGGGCCACAGCAGAAGCGUUCACGUCGCGGCCCCUGUCAGAUUCUGGUGAAUCUGCGAAUUCUGCUGU
# Variants of: B1
# Assay: self-cleavage, relative activity (ratio to wild type); higher = more cleavage; co-transcriptional
row,Variant,self-cleavage
1,A10C U44G,1.02
2,C9U A60U,0.538
3,A10U U67G,1.01
4,A10U U67A,0.997
5,A10U G37C,0.3
6,A10C G19C,0.097
7,A10C G19U,0.446
8,A10C C22A,0.161
9,A10C C27G,0.0915
10,C9G G19U,0.643
11,C9G G19C,0.133
12,C9G G58A,1.01
13,C9G G48U,1.01
14,A10U G14U,0.654
15,A10U A42C,0.937
16,A10C U38A,0.869
17,A10C U38G,0.248
18,A10U C63U,0.969
19,A10C G48U,1.02
20,A10C G48C,0.992
21,C9G G14A,0.783
22,A10G C29U,0.126
23,A10G C29A,0.324
24,G11A A13G,0.184

row,Variant,self-cleavage
1,G11A A13C,0.182
2,A10U G56U,0.984
3,A10U G56A,1.01
4,A10U A51G,0.955
5,A10U A51U,1.04
6,C9U G37U,0.432
7,C9U G37C,0.224
8,C9G U36A,0.256
9,A10U C66G,0.924
10,A10U C66A,0.845
11,C9U C34U,1.01
12,C9G A59C,0.896
13,A10U U62A,0.882
14,A10U U62C,0.757
15,C9U A15G,1.05
16,C9U A15U,0.931
17,C9U U36A,0.312
18,C9U U36C,1.02
19,A10U G30U,0.733
20,A10G G41A,0.37
21,A10G G41C,0.326
22,C9U G58U,1.02
23,C9U G58A,1.03
24,C9U G11U,0.945

row,Variant,self-cleavage
1,A10U U64G,0.897
2,A10U U64A,0.8
3,A10G U46A,0.91
4,C9U U43G,0.967
5,C9U G47C,1.06
6,C9U G47U,1.02
7,A10U G31U,0.895
8,A10U G31A,0.976
9,C9U A13G,1.04
10,A10C G25U,0.0666
11,A10G G31C,0.322
12,C9G C54G,0.926
13,C9U G28U,0.169
14,A10U G50U,0.978
15,C9G G56C,0.924
16,C9G G56A,1.01
17,C9G G56U,0.97
18,C9U U21A,0.932
19,C9U U21G,0.801
20,A10C C33U,0.98
21,A10U U46C,0.983
22,A10U U46A,0.954
23,A10U A15C,0.746
24,A10U C54A,0.902

row,Variant,self-cleavage
1,A10U C54G,0.958
2,A10G C33G,0.854
3,A10G C33U,0.953
4,C9G C57U,0.356
5,A10U U69G,1.06
6,A10U U69C,1.07
7,A10G U55G,0.36
8,A10U U44A,0.967
9,A10G A23C,0.939
10,A10C G17U,0.464
11,A10C A52C,0.986
12,A10C A52U,0.985
13,A10C G31C,0.233
14,C9U G14U,0.898
15,C9U G14C,0.747
16,C9U G65A,0.965
17,C9U C27G,0.203
18,A10G G25U,0.132
19,A10G G25A,0.0673
20,C9G A51C,0.674
21,A10C C29U,0.221
22,C9U C22A,0.226
23,C9U C22G,0.21
24,C9G U46G,1

row,Variant,self-cleavage
1,C9G U46C,0.937
2,A10U G28C,0.137
3,A10U G28U,0.14
4,A10U G28A,0.139
5,A10C C24G,0.478
6,C9G A60G,0.952
7,C9G U38C,0.997
8,A10U A16U,0.877
9,A10U A16G,0.924
10,A10G G50A,0.949
11,A10G C34U,0.982
12,A10U U43G,0.831
13,A10U U43A,0.941
14,A10U U43C,0.975
15,A10G G14C,0.0631
16,A10G G65A,0.337
17,A10G G65U,0.303
18,A10C U53G,0.927
19,A10G G37A,0.219
20,A10G G37U,0.11
21,A10U A13U,0.701
22,A10U A13G,0.56
23,A10U A60G,0.953
24,A10U A59G,0.968

row,Variant,self-cleavage
1,C9G G28C,0.149
2,C9G G28A,0.264
3,C9U U26A,0.929
4,C9U U26G,0.942
5,C9G G50U,1.02
6,C9G G50A,1.01
7,A10G U62C,0.376
8,C9G C45A,1.01
9,C9G C45U,0.998
10,A10U C29A,0.722
11,C9G U61G,0.958
12,C9G A23C,0.993
13,C9G A16C,0.548
14,A10U G25A,0.171
15,C9U U20G,0.17
16,A10C G50C,0.996
17,A10C G50U,1
18,C9U C39U,0.935
19,C9G U20C,0.254
20,A10G U44G,0.71
21,C9G U64G,0.936
22,A10G G30A,0.96
23,A10G G30U,0.704
24,C9G U69C,1.07

row,Variant,self-cleavage
1,A10C A23G,0.94
2,C9G C18U,0.935
3,C9U A52G,0.673
4,A10C G14C,0.252
5,A10G U67C,0.967
6,C9U U62C,0.966
7,C9U U62A,0.997
8,A10C G37A,0.242
9,A10G C32A,0.847
10,A10G C32U,0.939
11,A10U C57A,0.273
12,C9G A13U,0.837
13,A10G A52G,1.01
14,A10C G28C,0.102
15,C9G A52U,1.04
16,C9G A52C,0.985
17,C9U A40C,0.841
18,A10U C22A,0.208
19,C9U U69C,1.07
20,A10G A59G,0.925
21,C9G U67A,0.959
22,C9U C33G,0.974
23,C9U G56U,0.971
